B1: AURKA^([T288V R255A]) (enzyme, human)
chain: GAMDRSKENCISGPVKATAPVGGPKRVLVTQQFPCQNPLPVNSGQAQRVLCPSNSSQRIPLQAQKLVSSHKPVQNQKQKQLQATSVPHPVSRPLNNTQKSKQPLPSAPENNPEEELASKQKNEESKKRQWALEDFEIGRPLGKGKFGNVYLAREKQSKFILALKVLFKAQLEKAGVEHQLRREVEIQSHLRHPNILRLYGYFHDATRVYLILEYAPLGTVYRELQKLSKFDEQRTATYITELANALSYCHSKRVIHADIKPENLLLGSAGELKIADFGWSVHAPSSRRTVLCGTLDYLPPEMIEGRMHDEKVDLWSLGVLCYEFLVGKPPFEANTYQETYKRISRVEFTFPDFVTEGARDLISRLLKHNPSQRPMLREVLEHPWITANSSKPSNCQNKESASKQS
notes: non-native residues left at the N-terminus after TEV digestion of the 6xHis-GST fusion; Aurora A kinase (AURKA), human, full length, T288V R255A; source: E. coli BL21 DE3 pLyS RIL, purified (glutathione sepharose, TEV cleavage, HiTrap SP, Superdex 200); not shown: 6xHis, N-terminal, cleaved; GST, N-terminal, cleaved
B2: biotinylated AVI-tagged pBora^1–224 (phosphorylated by CyclinA2-Cdk2) (domain or fragment)
chain: not shown
modifications: biotin (on the AVI tag, by BirA); phosphorylated by CyclinA2-Cdk2 (average of eight phosphorylations)
notes: As m9, phosphorylated; MW 27440 calculated from an average of eight phosphorylations; not shown: AVI, N-terminal, kept; 6xHis, N-terminal, cleaved
B3: biotinylated AVI-tagged Bora^1–224 (domain or fragment)
chain: not shown
modifications: biotin (on the AVI tag, by BirA)
notes: source: E. coli BL21 DE3 pLyS RIL, purified, biotinylated in vitro with 6xHis-BirA and re-purified (Superdex 200); not shown: AVI, N-terminal, kept; 6xHis, N-terminal, cleaved
B4: pBora^(18–120 [S27A T52A]) (domain or fragment)
chain: not shown
modifications: phosphorylated; with ERK 2P and 3P by intact mass, 2 phosphorylations expected (S41, S112) (Supplementary Fig. S6e)
notes: non-native residues left at the N-terminus after TEV digestion; Bora, human, residues 18-120 with S27A and T52A; source: E. coli BL21 DE3 pLysS RIL, purified, then phosphorylated in vitro; not shown: 6xHis, N-terminal, cleaved

Assays:
Settings in all cases: both partners purified
[1] = target: T1, fluorescein-labeled Tpx2^1–43 polypeptide (UniProt Q9ULW0 1-43, fluorescein (FITC) label, position not stated); assay: fluorescence polarisation; direct binding: 5 nM FITC-Tpx2^1–43 with increasing AURKA; 25 mM HEPES pH 7.5, 50 mM NaCl, 10 mM MgCl2, 0.1 mg/mL BSA, 0.01% Brij, 3 mM ADP, 2 mM DTT
T1 construct: Tpx2 (Targeting Protein for Xenopus kinesin-like protein 2), first 43 residues; also called FITC-Tpx2^1–43; source: synthetic peptide (Proteogenix)
T1 peptide (looked up): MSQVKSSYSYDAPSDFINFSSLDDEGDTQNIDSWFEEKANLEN

[2] = target: T2, Full-length human AURKA^WT (Aurora A kinase) (human, UniProt O14965 1-403, phosphothreonine at T288 (T-loop; 'WT phosphorylated')); assay: SPR; biotinylated AVI-Bora^1–224 or AVI-pBora^1–224 immobilised on a streptavidin chip (Biacore S200), AURKA flowed over; 25 °C; 25 mM HEPES pH 7.5, 150 mM NaCl, 20 mM MgCl2, 1 mM TCEP, 0.01% Brij 35; flow 10 µL/min; mean of n = 2; the paper says the affinities appear under-estimated
T2 construct: non-native residues left at the N-terminus after TEV digestion of the 6xHis-GST fusion; Aurora A kinase (AURKA), human, full length; also called AURA^WT; WT phosphorylated; source: E. coli BL21 DE3 pLyS RIL, purified (glutathione sepharose, TEV cleavage, HiTrap SP, Superdex 200); not shown: 6xHis, N-terminal, cleaved; GST, N-terminal, cleaved
T2 sequence: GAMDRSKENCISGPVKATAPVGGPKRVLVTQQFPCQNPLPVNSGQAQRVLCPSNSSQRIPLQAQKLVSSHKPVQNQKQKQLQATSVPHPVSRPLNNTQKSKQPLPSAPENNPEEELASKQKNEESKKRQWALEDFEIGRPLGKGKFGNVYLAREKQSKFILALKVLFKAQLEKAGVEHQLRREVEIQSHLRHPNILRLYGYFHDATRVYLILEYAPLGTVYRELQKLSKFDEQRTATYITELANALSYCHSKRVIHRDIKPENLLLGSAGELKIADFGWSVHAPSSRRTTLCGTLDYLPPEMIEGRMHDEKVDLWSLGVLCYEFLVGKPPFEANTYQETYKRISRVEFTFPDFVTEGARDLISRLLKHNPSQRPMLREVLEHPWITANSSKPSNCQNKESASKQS

[3] = target: T3, Full-length human AURKA^T288V (human, UniProt O14965 1-403, T288V); assay: as above
T3 construct: non-native residues left at the N-terminus after TEV digestion of the 6xHis-GST fusion; Aurora A kinase (AURKA), human, full length, T288V; Lacks T-loop phosphorylation; MW 45935.52 in the SPR methods; also called AURKA T-loop mutant (T288V); source: E. coli BL21 DE3 pLyS RIL, purified (glutathione sepharose, TEV cleavage, HiTrap SP, Superdex 200); not shown: 6xHis, N-terminal, cleaved; GST, …
T3 sequence: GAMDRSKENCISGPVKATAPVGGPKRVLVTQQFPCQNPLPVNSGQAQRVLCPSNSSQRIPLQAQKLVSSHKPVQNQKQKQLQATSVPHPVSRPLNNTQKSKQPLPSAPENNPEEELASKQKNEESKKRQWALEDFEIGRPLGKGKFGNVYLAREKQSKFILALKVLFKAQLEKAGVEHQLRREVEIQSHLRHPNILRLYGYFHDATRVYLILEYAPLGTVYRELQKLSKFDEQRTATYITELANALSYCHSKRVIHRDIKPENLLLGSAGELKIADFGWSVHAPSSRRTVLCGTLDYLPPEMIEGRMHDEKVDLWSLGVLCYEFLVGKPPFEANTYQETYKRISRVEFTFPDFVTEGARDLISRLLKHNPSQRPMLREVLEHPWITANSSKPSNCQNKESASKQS

[4] = target: T4, Full-length human AURKA^T288V (human, UniProt O14965 1-403, T288V, not phosphorylated: 0P by intact mass (Supplementary Fig. S3a)); assay: fluorescence polarisation; competitive displacement: FITC-Tpx2^1–43 (5 nM) and AURKA (35 nM) kept constant, unlabeled competitor varied; 25 mM HEPES pH 7.5, 50 mM NaCl, 10 mM MgCl2, 0.1 mg/mL BSA, 0.01% Brij, 3 mM ADP, 2 mM DTT
T4 construct: non-native residues left at the N-terminus after TEV digestion; Aurora A kinase (AURKA), human, full length, T-loop mutant T288V; source: E. coli BL21 DE3 pLysS RIL, purified (glutathione sepharose, TEV cleavage, HiTrap SP, Superdex 200); not shown: 6xHis, N-terminal, cleaved; GST, N-terminal, cleaved
T4 sequence: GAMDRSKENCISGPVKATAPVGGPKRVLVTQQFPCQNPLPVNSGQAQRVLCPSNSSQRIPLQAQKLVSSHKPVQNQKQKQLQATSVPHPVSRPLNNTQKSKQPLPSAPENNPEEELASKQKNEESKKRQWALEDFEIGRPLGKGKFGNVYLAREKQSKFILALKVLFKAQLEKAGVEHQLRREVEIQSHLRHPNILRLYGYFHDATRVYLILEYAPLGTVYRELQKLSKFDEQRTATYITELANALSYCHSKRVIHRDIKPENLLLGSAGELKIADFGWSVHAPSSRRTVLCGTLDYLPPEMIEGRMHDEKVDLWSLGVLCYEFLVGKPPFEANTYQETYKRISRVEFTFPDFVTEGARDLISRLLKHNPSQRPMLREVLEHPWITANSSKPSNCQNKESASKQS

Binder | fold reduced binding against the other AURKA^T288V mutants [1] [fold] | Kd [2] [µM] | Kd [3] [µM] | IC50 [4] [µM]
B1 | 3 |  |  | 
B2 |  | ~18 | 6 | 
B3 |  | ~52 | 11 | 
B4 |  |  |  | 0.68

— PMC7997955, “Bora phosphorylation substitutes in trans for T-loop phosphorylation in Aurora A to promote mitotic entry” (Nature Communications, 2021)
